As a reminder, the Km is the substrate concentration at which the rate is half of its maximum.

The subject of this data set is C=C(OP(=O)(O)O)C(=O)O. Briefly: purified protein, by the assay type. The following applies: ADP 0.8 mM, pH 7.5.

Sequence of PKM2 N70D (Homo sapiens; N70D) (chain, as listed by the source N70D N70D): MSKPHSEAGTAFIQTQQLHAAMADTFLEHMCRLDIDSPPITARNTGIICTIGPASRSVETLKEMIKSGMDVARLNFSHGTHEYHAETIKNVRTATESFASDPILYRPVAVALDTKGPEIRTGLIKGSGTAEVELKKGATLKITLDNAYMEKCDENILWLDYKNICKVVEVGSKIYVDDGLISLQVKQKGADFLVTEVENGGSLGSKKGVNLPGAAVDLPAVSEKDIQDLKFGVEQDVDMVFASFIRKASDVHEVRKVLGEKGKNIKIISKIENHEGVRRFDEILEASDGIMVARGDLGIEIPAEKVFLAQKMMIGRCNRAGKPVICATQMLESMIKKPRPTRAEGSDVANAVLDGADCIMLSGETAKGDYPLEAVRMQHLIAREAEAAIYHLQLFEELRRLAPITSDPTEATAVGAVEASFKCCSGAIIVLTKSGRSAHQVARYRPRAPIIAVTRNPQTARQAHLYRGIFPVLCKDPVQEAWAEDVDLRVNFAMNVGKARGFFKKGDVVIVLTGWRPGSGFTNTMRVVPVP
Sequence of PKM2 R106A (Homo sapiens; R106A) (chain, as listed by the source R106A R106A): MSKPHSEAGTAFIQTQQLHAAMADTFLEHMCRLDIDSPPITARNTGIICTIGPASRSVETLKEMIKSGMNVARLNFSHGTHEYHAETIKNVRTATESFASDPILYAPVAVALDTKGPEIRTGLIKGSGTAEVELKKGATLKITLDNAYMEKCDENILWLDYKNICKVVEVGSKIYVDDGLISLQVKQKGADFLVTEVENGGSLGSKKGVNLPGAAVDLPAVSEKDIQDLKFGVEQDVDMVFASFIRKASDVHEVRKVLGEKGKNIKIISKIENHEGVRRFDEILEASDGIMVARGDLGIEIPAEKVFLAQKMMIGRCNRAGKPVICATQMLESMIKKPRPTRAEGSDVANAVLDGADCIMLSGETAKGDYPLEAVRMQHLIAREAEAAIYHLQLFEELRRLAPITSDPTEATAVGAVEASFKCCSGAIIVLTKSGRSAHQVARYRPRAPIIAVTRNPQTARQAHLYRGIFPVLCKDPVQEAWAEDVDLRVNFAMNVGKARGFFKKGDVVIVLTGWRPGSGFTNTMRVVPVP
Sequence of PKM2 N75L (Homo sapiens; N75L) (chain, as listed by the source N75L N75L): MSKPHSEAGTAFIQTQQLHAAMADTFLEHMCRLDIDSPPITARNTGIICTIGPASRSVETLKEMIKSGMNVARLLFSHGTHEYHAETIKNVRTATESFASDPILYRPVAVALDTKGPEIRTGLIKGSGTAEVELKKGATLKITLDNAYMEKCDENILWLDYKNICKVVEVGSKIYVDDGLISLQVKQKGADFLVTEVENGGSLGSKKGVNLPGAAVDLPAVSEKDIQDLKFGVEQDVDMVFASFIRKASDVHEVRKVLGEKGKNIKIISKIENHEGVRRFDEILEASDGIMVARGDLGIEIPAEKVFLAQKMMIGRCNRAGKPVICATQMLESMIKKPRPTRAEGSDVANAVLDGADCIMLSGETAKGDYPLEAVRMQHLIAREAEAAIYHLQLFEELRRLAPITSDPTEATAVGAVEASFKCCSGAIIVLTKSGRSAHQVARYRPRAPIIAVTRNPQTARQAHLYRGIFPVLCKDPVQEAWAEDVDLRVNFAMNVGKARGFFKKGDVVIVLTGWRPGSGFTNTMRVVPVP

For the substance PKM2 N75L (Homo sapiens; N75L), the Km (other: 4200 nM PKM2 N75L, no AA) stood at 80 µM.

Regarding PKM2 N70D (Homo sapiens; N70D), for the setting “other: 65 nM PKM2 N70D, no AA”, the Km came to 780 ± 160 µM and the kcat/Km is listed as 5.9±1.3 ×10^3 mM^-1 min^-1.

As for PKM2 R106A (Homo sapiens; R106A), for the setting “other: 50 nM PKM2 R106A, no AA”, the Km was 510 ± 40 µM and the kcat/Km is on record as 9.6±0.8 ×10^3 mM^-1 min^-1.

In the case of wtPKM2 (Homo sapiens), the Michaelis-Menten constant (Km) (other: 10 nM wtPKM2, no AA) turned out to be 700 µM.

The record behind these values is paper PMC10004559, “Identification of residues involved in allosteric signal transmission from amino acid binding site of pyruvate kinase muscle isoform 2” (PLOS ONE, 2023).
